Results reported in US11464784B2, “Inhibition of aminocylase 3 (AA3) in the treatment of cancer” (THE REGENTS OF THE UNIVERSITY OF CALIFORNIA, priority 2017, dated 2022).

Substrate: CC(=O)C/C(C)=C/CC/C(C)=C/CC/C(C)=C/CC/C(C)=C/CN[C@@H](CS)C(=O)O
Assay: Substrate kinetics of mouse AA3 (mAA3)
Type: biochemical
Details: other: substrate of mAA3

B1: mAA3 (Mus musculus) (protein)
chain: MSSLPGSREPLLRVAVTGGTHGNEMCGVYLARYWLQNPGELQRPSFSAMPVLANPAATAACCRYLDRDLNRSCTLTFLGSTATPDDPYEVKRARELNQLLGPKGTGQAFDFTLDLHNTTANTGVCLISESNISFNLHLCHYLQRQNPGMPCRLFLYEPAGTETFSVESISKNGICLEMGPQPQGVLRADLFSRMRALVASILDFIELFNQGMDLPAFEMDIYRNLGSVDFPRTADGDLAGTVHPQLQDHDFEPLRPGEPIFKLFSGEDVLYEGDSIVYPVFINEAAYYEKHVAFLKSEKIRVTVPALLRLTPRSTQTP
Q: With B1 as the protein, how does the Km read?
A: 25 µM
